The text below walks through data of US20100092505A1, “Method for Shielding Functional Sites or Epitopes on Proteins” (priority 2005, published 2010).

Where no end group is shown, it is not given here.

The nature of data set [1]: Isoelectric point (pI) of chimeric peptides and gp41 mimetics. The format is physicochemical.
For data set [2] the following is noted: disulfide-linked trimer; refers to U.S. Provisional Applications 60/576,062 and 60/636,724; cited from earlier work.
Data set [3] deals with guinea pigs. As to the kind of experiment: ELISA of sera from guinea pigs immunized under homologous and heterologous Prime/Boost regimens. The data set is classed as in vivo. The settings on record: guinea pig serum; prime plus two boosts; PEGylated vaccine in both homologous and heterologous modality; QS21 adjuvant. As to the method: The Prime/Boost pair is shown below each group of bars. The ELISA geometric mean titers (GMT) against each antigen are a true reflection of the relative amount of antibodies with the corresponding specificity present in the serum.
Immunogenicity of the SMW-PEGylated vaccine—Animal studies were conducted in guinea pigs to compare the antibody response elicited by the non-PEGylated vaccine (CCIZN17)3 and the PEGylated vaccine (CCIPN17)3. The latter was used both in a homologous modality (i.e., using a priming injection with the antigen, followed by two boost injections with the same antigen) and a heterologous modality (i.e., using a priming injection with the non-PEGylated antigen (CCIZN17)3, followed by two boost injections with the PEGylated antigen (CCIPN17)3) (see FIG. 4). The PEGylated antigens were administered to the animals along with QS21 as an adjuvant (Antigenics; New York, N.Y.). Analysis of the immune response was performed by ELISA. To eliminate any bias due to differences in the absorption capacity of the antigens on the ELISA plate, all the capture antigens were biotinylated, and the ELISA plate was coated with streptavidin prior to the addition of the capture biotinylated molecules. […] This is identical in (CCIZN17)3 and (CCIPN17)3 and, accordingly, the measured GMT are identical when measured against either antigen.

The subject of data set [4] is patients. The settings on record: cited from earlier work.

Regarding “(CCGGIEKKIEEIEKKIEEIEKKIEEIEKLLQLTVWGIKQLQARIL)3 [(CCEZN17)3]”, the pI in data set [1] (Table 6, gp41 mimetics) was 5.30.

For the substance “(CCGGIKKEIEAIKKEQEAIKKKIEAIEKLLQLTVWGIKQLQARIL)3 (not fully specified (N-terminus, C-terminus, bridges); printed as (CCGGIKKEIEAIKKEQEAIKKKIEAIEKLLQLTVWGIKQLQARIL)3; also: disulfide-linked trimer) [(CCIZN17)3]”, the “stability relative to the non-covalent IZN17 trimeric coiled-coil” value in data set [2] is “more stable than the original IZN17 trimeric coiled-coil”. Moreover, the “antibody response against the scaffold moiety (ELISA GMT, capture antigens (Biotin-CCIZ)3 and (Biotin-CCIP)3)” value in data set [3] is “comparable amounts against the whole antigen and the scaffold moiety alone”.

Consider “AN-1792: Elan/Wyeth Aβ 1-42 peptide vaccine for Alzheimer disease, clinical trial discontinued”, for which, in data set [4] (patients with high titers of Aβ antibodies), the “therapeutic effect in the clinical trial” value was “reduction of plaque and some limited stabilization of memory”. The “adverse effect that led to discontinuation of the clinical trial” value in data set [4] (patients, attributed to a T-cell response to the COOH-terminal region of Aβ) is recorded as “severe brain inflammation problems”. Moreover, in data set [4] (vaccinated patients), the “induction of antibodies specific for the pathological form of Aβ” value is given as “induced in the majority of patients”.

For the substance “IEKKIEEIEKKIEEIEKKIEEIEKLLQLTVWGIKQLQARIL [EZN17]”, in data set [1] (chimeric N-peptide), the pI came to 5.2.

In turn, “IKKEIEAIKKEQEAIKKKIEAIEKLLQLTVWGIKQLQARIL [IZN17]” displayed a pI in data set [1] (chimeric N-peptide) of 10.7.
